Source: the supplement of paper PMC9170038

Tested on: MS2 coat protein
Experiment: apparent KD of MS2 coat protein; designed switch direction (-1 OFF switch, 1 ON switch): 1; higher = weaker reporter binding
In short: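 The buffer was Tris-HCl pH 7.5 with KCl, MgCl2, BSA, DTT, tRNA and Tween-20. In it, SNAP-549-labelled MS2 coat protein was titrated in doubling steps from 0.7 or 1.5 nM to 3 µM over chip-bound RNA switches transcribed by stalled E. coli RNA polymerase on Illumina chips. Apparent KD is the per-design median over clusters of curve fits to normalised fluorescence.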

[1] = input ligand: microRNA oligo, concentration not stated
[2] = Eterna round: R95, input ligand: FMN 200 uM
[3] = Eterna round: R95, input ligand: microRNA oligo, concentration not stated
[4] = Eterna round: R95, input ligand: none

AUAAUAAGGACAGGAUAUGGGAAAGGAAGUGUACUAGAAGGGUCGAGAAGACCAGAACAUGAGGAUCACCCAUGUGAUGGGAAA [PowerStrip SSNG 1.28] (Eterna round: R96, puzzle: Same State NG 1)
apparent KD of MS2 coat protein (input ligand: FMN 200 uM): 0.0217 µM | apparent KD of MS2 coat protein [1]: 0.0233 µM | apparent KD of MS2 coat protein (input ligand: none): 0.0361 µM

AUAAUAAUAAGUGAGGAUAUGUUGAUAAAGACAUGAGGAUCACCCAUGUGAAAUAAAAUAAUAAUACAGAAGGCACAAUAAUAAA [JMF's solution 2] (puzzle: Same State 2)
apparent KD of MS2 coat protein [2]: 0.0256 µM | apparent KD of MS2 coat protein [3]: 0.0387 µM | apparent KD of MS2 coat protein [4]: 0.0279 µM

AUACAUGAGGAUCACCCAUGUAAUUAAUUAAUUAAUAAGAUCUAGGAUAUCAGCUCGUUUAGAGCUGAGAAGGAGAUCACAUGU [SSNG3/21-B3] (Eterna round: R96, puzzle: Same State NG 3)
apparent KD of MS2 coat protein [1]: 0.0198 µM

AUACCAUCGGGAGGAUAUGGCACCUUAUUGGUGCCAGAAGGUCUAACAUGAGGAUCACCCAUGUGGGAGUGGUCUAAUGACCAC [Eli NG1ss - 87] (Eterna round: R96, puzzle: Same State NG 1)
apparent KD of MS2 coat protein (input ligand: FMN 200 uM): 0.144 µM | apparent KD of MS2 coat protein [1]: 0.127 µM | apparent KD of MS2 coat protein (input ligand: none): 0.186 µM

AUACUCAUGUAAGGAUAUGCAGCCGAAACGGCUGCAGAAGGUACUAUAAUACAUGAGGAUCACCCAUGUCUCUAUUAUUUAGUU [Mat - Same State NG 1 - JL mod - D98] (Eterna round: R96, puzzle: Same State NG 1)
apparent KD of MS2 coat protein (input ligand: FMN 200 uM): 0.0895 µM | apparent KD of MS2 coat protein [1]: 0.0465 µM | apparent KD of MS2 coat protein (input ligand: none): 0.101 µM

AUAGUUUCCGAAGGAUAUGAUGAGGAUCACCCAUCAGAAGGUUGGCUAUUGGGUGGACAUGAGGAUCACCCAUGUCUUUCUGUU (Eterna round: R96, puzzle: Same State NG 1)
apparent KD of MS2 coat protein (input ligand: FMN 200 uM): 0.0297 µM | apparent KD of MS2 coat protein [1]: 0.0391 µM | apparent KD of MS2 coat protein (input ligand: none): 0.0536 µM

AUCCUACAUGAGGAUCACCCAUGUGACGCCUCAAUAGGAUAUCGGGCCCACAGUCAGGAACGAGAAGGAUUGAAGC [Digerier] (puzzle: Same State 1)
apparent KD of MS2 coat protein [2]: 0.0675 µM | apparent KD of MS2 coat protein [3]: 0.0293 µM | apparent KD of MS2 coat protein [4]: 0.0667 µM

AUGGUGCAGGUACAGGAUAUGUUGCUCGUAACAUGAGGAUCACCCAUGUACCUAUGAGAUUAAAUGCAGAAGGGUGCACACCAAA [Mat - Same State 2 - Mod of UCT - D90] (Eterna round: R96, puzzle: Same State 2)
apparent KD of MS2 coat protein (input ligand: FMN 200 uM): 0.0381 µM | apparent KD of MS2 coat protein [1]: 0.224 µM | apparent KD of MS2 coat protein (input ligand: none): 1.35 µM

AUGGUGCAGGUACAGGAUAUGUUGCUCGUAACAUGAGGAUCACCCAUGUACCUAUGAGAUUAAAUGCAGAAGGGUGCACACCAAA [Mat - Same State 2 - Mod of UCT - D90] (puzzle: Same State 2)
apparent KD of MS2 coat protein [2]: 0.0397 µM | apparent KD of MS2 coat protein [3]: 0.507 µM | apparent KD of MS2 coat protein [4]: 0.707 µM

AUUAAACAUGAGGAUCACCCAUGUCAUCAAAGUCGAGGAUAUGGGCAAAUAAAAUAAGAACCAGAAGGCGAAUAAU [salish99_ss1_r3_073] (puzzle: Same State 1)
apparent KD of MS2 coat protein [2]: 0.0696 µM | apparent KD of MS2 coat protein [3]: 0.122 µM | apparent KD of MS2 coat protein [4]: 0.269 µM

AUUAAUAAUCUAGGAUAUCACGUCGUUUAGACGUGAGAAGGAGAUCAUAACAUGAGGAUCACCCAUGUAUUACAUGAAGUUAAU [SSNG1/7-B3] (Eterna round: R96, puzzle: Same State NG 1)
apparent KD of MS2 coat protein (input ligand: FMN 200 uM): 0.0222 µM | apparent KD of MS2 coat protein [1]: 0.0278 µM | apparent KD of MS2 coat protein (input ligand: none): 0.0375 µM

AUUAAUUAAUUAAUACAUGAGGAUCACCCAUGUAAUAAGAUCUAGGAUAUCAGCUCGAAUAGAGCUGAGAAGGAGAUCACAUGU [SSNG3/17-A1] (Eterna round: R96, puzzle: Same State NG 3)
apparent KD of MS2 coat protein [1]: 0.0311 µM
